According to the nanobody polyreactivity screen of Harvey et al. (2022):

Test: yeast display, Sf9 membrane polyspecificity reagent, FACS + sequencing; frameworks hold sequencing errors
Method in brief: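 Nanobodies came from a synthetic yeast display library in Saccharomyces cerevisiae BJ5465, induced with galactose for 36–48 hours and stained for 1 hour at 4 °C with 10% biotinylated, detergent-solubilized Sf9 membrane reagent. Cells were enriched on streptavidin microbeads and then FACS-sorted, with low and high (top ~1%) gates set on anti-HA fluorescence for expression and streptavidin fluorescence for reagent binding. Each polyreactivity label reflects the gate a clone came from. Genes were amplified by colony PCR, sequenced by MiSeq 2 × 250 and filtered by CDR length.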

| Sequence | polyreactivity (PSR sort gate) |
| --- | --- |
| QVQLVESGGGLVQAGGSLRLSCAASGSTIRRNAKGWYRQAPGKERELVAAITRRAVSTYYADSVKGRFTISRDNAKNTVYLQMNSLKPEDTAVYYCAADRASYFTYAYGYWGQGTQVTVSS | high polyreactivity |
| QVQLVESGGGLVQAGGSLRLSCAASGSTIRSNAMGWYRQAPGKERELVAAISRTGGRTYYADSVKGRFTISRDNAKNTVYLQMNSLKPEDTAVYYCARPDKRLEYSENYYWGQGTQVTVSS | high polyreactivity |
| QVQLVESGGGLVQAGGSLRLSCAASGSTIRYYAMGWYRQAPGKERELLAAITKSGGSTYYADSVKGRFTISRDNAKNTVYLQMNSLKPEDTAVYFCAAVRRWYYPALSEHDYCGQGTQVTVSS | low polyreactivity |
| QVQLVESGGGLVQAGGSLRLSCAASGSTIRYYAMGWYRQAPGKERELVAANTKSGGSTYYADSVKGRFTISRDNAKNTVYLQMNSPKPEDTAVYSCAAVRRWYYPALSEHDYWGQGTQVTVSS | low polyreactivity |
| QVQLVESGGGLVQAGGSLRLSCAASGSTISGYAKGWYRQAPGKERELVATISRGGSTNYADSVKGRFTISRDNAKNTVYLQMNSLKPEDTEVYYCAAVVSDYVWRYEYWGQGTQVTVSS | low polyreactivity |
| QVQLVESGGGLVQAGGSLRLSCAASGSTISKYAMGWYRQAPGKERYLVAAISSRGGSTYYADSVKGRFTISRDNAKNTVYLQMNSLTPEDTAVYYCNATPYPGGNGRWRFWKSYRYWGQGTQVTVSS | high polyreactivity |
| QVQLVESGGGLVQAGGSLRLSCAASGSTISRYTMGWYPQAPGKERELVAAIRRSGSSTYYADSVKGRYTISRDNAKYTVYLQMNSLKREDTAVYYCAVGRYRYGYWGQGTQVTVSS | high polyreactivity |
| QVQLVESGGGLVQAGGSLRLSCAASGSTITNYAMGWYRQAPGKERELVAAIRYSGGRTYYADSVKGRFTISRDNANNPGYLQMNSLKPEDTAVYYCAADRASYFTYAYGYWGQGTQVTVSS | high polyreactivity |
| QVQLVESGGGLVQAGGSLRLSCAASGSTITSNAMGWYRQAPGKERELVAAINTSGGSTYYADSVKGRFTISRDNAKNTVYLQMNSLKPEDTAVYYCNADYGGDEYRGLEFDYWGQGTQVTVSS | low polyreactivity |
| QVQLVESGGGLVQAGGSLRLSCAASGSTIVRYAMGWYRQAPGKERELVAAISSRGGSTYYADSVKGRFTNSRDNAKNTVYLQMNSLKAEDTGVYYCAAAQRCTNAYRVGSWGLGTQVTVSS | high polyreactivity |
| QVQLVESGGGLVQAGGSLRLSCAASGSTIVYYAMGWYIQAPGKERELVAAITSGGSTYDADSVKGRCTISRDNAKNTVYLQMNSQKPEDTAVYYCHADWWRGDEAYRMYYWGQGTQVTVSS | low polyreactivity |
| QVQLVESGGGLVQAGGSLRLSCAASGSTIYAMGWYRQAPGKERELVAGINRSGTRTYYADSVKGRFTISRDNAKNTVYLQMNSLKPEDTAVYYCAALVYRPTYGYIFDYWGQGTQVTVSS | high polyreactivity |
| QVQLVESGGGLVQAGGSLRLSCAASGSTIYENAMGWYRQAPGKERELVAGISRGGGSTYYADSVKGRFTISRDNAKNTVYLQMNSLKPEDTAVYYCAAGSRVQGGYWGQGTQVTVSS | low polyreactivity |
| QVQLVESGGGLVQAGGSLRLSCAASGSTIYFNGMGWYRQAPGKERELVAAITSGGSTDYADSVKGRFTISRDNAKNTVYLQMNSLKPEDTAVYYCAADHYGRYDYWGQGTQVTVSS | low polyreactivity |
| QVQLVESGGGLVQAGGSLRLSCAASGSTIYFYAMGWYRQAPGKERELVAAITWSGGRTYYADSVKGRFTISRDNAKNTVYLQMNSLKPEDTAVYYCAAVRPPLARLYVAAKRFDSWGQGTQVTVSS | low polyreactivity |
| QVQLVESGGGLVQAGGSLRLSCAASGSTIYGYAMGWDRQAPGKERELVAAISYRGGSTYYADSVKGRFTISRDNAKNTVYLQMNSLKPEDTAVYYCAALGDDATSYGYWGQGTQVTVSS | high polyreactivity |
| QVQLVESGGGLVQAGGSLRLSCAASGSTIYHNAMGWYRQAPGKERELVAAISSGGSTHYADSVKGRFTISRDNAKNTVYLQMNSLKPEDTAVYYCATYSSVRQLLWGNGYWGQGTQVTVSS | high polyreactivity |
| QVQLVESGGGLVQAGGSLRLSCAASGSTIYNYAMGSYRPAPGKVRELVASITWNGGSTYYADSVKGRFTISRDNAKNTVYLQMNSLKPEDTAVYYCAAEWTWTYPYDYWGQGTQVTVSS | low polyreactivity |
| QVQLVESGGGLVQAGGSLRLSCAASGSTIYWYAMGWYRQAPGKERELVAAISLSGGSTYYADSVKGRFTFSRDNAKNTVYLQMNSLKPEDTAVYYCAARTSYYVYRHPSGRYDYWGQGTQVTVSS | low polyreactivity |
| QVQLVESGGGLVQAGGSLRLSCAASGSTIYWYAMGWYRQAPGKERELVAAISLSGGSTYYADSVKGRFTISRDNAKNTVYLQMNSLKPEDTAVYYCAARTSYYVYRHPSGRYDYWGQGTQVTVSS | low polyreactivity |

| Sequence | polyreactivity (PSR sort gate) |
| --- | --- |
| QVQLVESGGGLVQAGGSLRLSCAASGSTIYWYTMGWYRQPPGKEMELVAAITGGTGNTYYADSVKGRFTISRDNAKNTVYLQMNSLKPEDTAVYYCAAYYRRYDYDYWGQGTQVTVSS | high polyreactivity |
| QVQLVESGGGLVQAGGSLRLSCAASGSTIYYNAMGWYRQAPGKERELVARISRSGGSTYADSVKGRFTISRDNAKNTVYLQMNSLKPEDTAVYYCNADAYGTPEFTSYAVRYDYWGQGTQVTVSS | low polyreactivity |
| QVQLVESGGGLVQAGGSLRLSCAASGSTKYYVMGWYRQAPGKERELVAAISRGSSTYYADSVKGRFTISRDNAKNTVYLQMNSLKPEDTAVYYCAARGPWQAPYDYWGQGTQVTVSS | high polyreactivity |
| QVQLVESGGGLVQAGGSLRLSCAASGSTLAFYAMGWYRQATGKQRELVAAISRSGGRTYYSDSVKGRFTISRDNAKNTVYLQMNSLKPEDTAVYYCAAYWYYYWWYDYWGQGTQVTVSS | high polyreactivity |
| QVQLVESGGGLVQAGGSLRLSCAASGSTLAIYAMGWYRQAPGKERELVAAISGGGSTYADSVKGRFTISRDNAKNTVYLQMNSLKPEETAVYYCNADGWGDRFWSNFRFDYWGQGTQVTVSS | low polyreactivity |
| QVQLVESGGGLVQAGGSLRLSCAASGSTLANYAMGWYRQAPGKERELVAAINSGGSTYYADSVKGRFTISRDNAKNTVYLQMNSLKPEDTAVYYCAAETPNYYGWWEPVWHYYWGQGTQVTVSS | high polyreactivity |
| QVQLVESGGGLVQAGGSLRLSCAASGSTLARYTMGWYRQAPGKERELVATIDFGGVNTYYADSVKGRFTISRDTAKNTVYLQMNSLKPEDTAVYYCAAYNRLKRNVLYDYWGQGTQVTVSS | low polyreactivity |
| QVQLVESGGGLVQAGGSLRLSCAASGSTLASNAKGWYRQAPGKERELVAAIRVSGASTYYADSVKGRFTISRDNAKNTVYLQMNSLKPEDTAVYYCAADYQFGVIYYYWGQGTQVTVSS | low polyreactivity |
| QVQLVESGGGLVQAGGSLRLSCAASGSTLATNAMGWYRQAPGKERELVAYADSVKGRFTISRDNAKNTVYLQMNSLNPEDTAVYYCNVVFRYAYGVYYTPEFYYWGQGTQVTVSS | low polyreactivity |
| QVQLVESGGGLVQAGGSLRLSCAASGSTLATYTMGWYRQAPGKERELVAAISFGGSTYYADSVKGRFTISRDNAKNTVYLQMNSLKPEDTAVYYCAVYGDSYWGAYYYSDGYWGQGTQVTVSS | low polyreactivity |
| QVQLVESGGGLVQAGGSLRLSCAASGSTLDEYVMGWYRQAPGKEREFVAAISRSGSSTYYADSVKGRFTISRDNAKNTVYLQMNSLKPEDTAVYYCAARLYSSVVRYRYGYWGQGTQVTVSS | high polyreactivity |
| QVQLVESGGGLVQAGGSLRLSCAASGSTLDIYAMGWYRQAPGKERELVATINSTGGSTYYADSVKGRFTISRDNAKNTVYLQMNSLNPEDTAVYYCAADFGLFGPTTGYIRPYDYWGQGTQVTVSS | low polyreactivity |
| QVQLVESGGGLVQAGGSLRLSCAASGSTLDKYAMGWYRQAPGKERELVAAISSSGGSTYYADSVKGRFTISRDNAKNTVYLQMNSLKPEDTAVYYCAARFFRGRYLDDYWGQGTQVTVSS | high polyreactivity |
| QVQLVESGGGLVQAGGSLRLSCAASGSTLDPNVMGWYRQAPGKEREWVAAITTGGSTYYADSVKGRFTFSRDNAKNTVYLQLYSLKPEDTAFYYCNKDIGWLAHSRIWLWYDYWGQGTQVTVAS | low polyreactivity |
| QVQLVESGGGLVQAGGSLRLSCAASGSTLDSYARGWYRQAPGTERELVAVIDTGGTTNYADSVKGRFTISRDNAKNTVYLQMNSLKPEDTAVYYCAADYAYYGYWFEGYDYWGQGTQVTVSS | low polyreactivity |
| QVQLVESGGGLVQAGGSLRLSCAASGSTLGANAMGWYRQAPGKERELVAAISISDGDTYYADSVKGRFTISRDNAKNPVYLQMNSLKPEDTAVYYCAADYWFQYRWYDYWGQGTQVTVSS | high polyreactivity |
| QVQLVESGGGLVQAGGSLRLSCAASGSTLGAYAMGWYRQAPGKERELVAAISRSGGNTYYADSVKGRFTISRDNAKNTVYLQMNSLKPEDTAVYYCAAVKLFLGLCYDYWGQGTQVTVSS | low polyreactivity |
| QVQLVESGGGLVQAGGSLRLSCAASGSTLGGNAMGWYRQEPGKERELGAAITSSAGSTYYADSVKGRYTISRDNAKNTVYLQMNSLQPEDTAVYYCAADYSRDEYDYWGQGTEVTVSS | low polyreactivity |
| QVQLVESGGGLVQAGGSLRLSCAASGSTLGLNAMGWYRKAPGKERELVAAISQSGTSTYYADSVKGRFTISRDNAKNTVYLQMNSLKPEDTAVYYCAVEYTQWWTYDYWGQGTQVTVSS | low polyreactivity |
| QVQLVESGGGLVQAGGSLRLSCAASGSTLGQYVMGWYRQAPGKERELVAAISRRGGRTNYADSVKGRFTISRDNAKNTVYLQMNSLNPEDTAVYYCAAKFRIYRPSKYYYWGQGTQVTVSW | high polyreactivity |
